B1: Azoarcus group I ribozyme (parent)
chain: GUGCCUUGCGCCGGGAAACCACGCAAGGGAUGGUGUCAAAUUCGGCGAAACCUAAGCGCCCGCCCGGGCGUAUGGCAACGCCGAGCCAAGCUUCGGCGCCUGCGCCGAUGAAGGUGUAGAGACUAGACGGCACCCACCUAAGGCAAACGCUAUGGUGAAGGCAUAGUCCAGGGAGUGGCGAAAGUCACACAAACCGG

Variants of: B1
Test: reverse-splicing fitness (ratio to wild type); higher = more active; in vitro selection; Mg2+ level not given
Procedure, shortened: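 An in vitro group I ribozyme library with randomized positions was T7-transcribed and gel-purified. In triplicate, 10 pmol RNA in EPPS pH 7.5 was reacted with 50 pmoles of a 30-nt RNA substrate for 1 h at 37 °C across several added MgCl2 levels (1–48 mM), then stopped with EDTA. Products were reverse transcribed from a substrate-complementary primer, PCR-amplified and sequenced (HiSeq 4000). Fitness is a variant's read proportion after selection over that before, normalised to wild type.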

Which reverse-splicing fitness does the source give for C82A A111U A120G C169A U176C here?
Its reverse-splicing fitness is 0.0218.

With C82A A111U A120G C169A U176A as the variant, how does the reverse-splicing fitness read?
Its reverse-splicing fitness is 0.0188.

Which reverse-splicing fitness does the source give for C82A A111U A120G A145U C150A here?
Its reverse-splicing fitness is 0.00949.

For C82A A111U A120G A145U C150G, which reverse-splicing fitness is on record?
The reverse-splicing fitness was 0.00799.

For C82A A111U A120G A145U C150U, which reverse-splicing fitness is on record?
The reverse-splicing fitness was 0.0134.

For C82A A111U A120G A145C C150U C169A, which reverse-splicing fitness is on record?
The reverse-splicing fitness was 0.00869.

For C82A A111U A120G A145C C150U C169G, which reverse-splicing fitness is on record?
Its reverse-splicing fitness is 0.00823.

For C82A A111U A120G A145C C150U C169U, which reverse-splicing fitness is on record?
Its reverse-splicing fitness is 0.00725.

For C82A A111U A120C C150U U176G, which reverse-splicing fitness is on record?
The reverse-splicing fitness was 0.00805.

For C82A A111U A120C C150U U176C, which reverse-splicing fitness is on record?
Its reverse-splicing fitness is 0.022.

With C82A A111U A120C C150U U176A as the variant, how does the reverse-splicing fitness read?
The reverse-splicing fitness was 0.0125.

For C82A A111U A120G A145U U176A, which reverse-splicing fitness is on record?
Its reverse-splicing fitness is 0.0132.

For C82A A111U A120G A145U U176C, which reverse-splicing fitness is on record?
The reverse-splicing fitness was 0.0145.

Which reverse-splicing fitness does the source give for C82A A111U A120G A145U U176G here?
The reverse-splicing fitness was 0.00522.

Which reverse-splicing fitness does the source give for C82A A111U A120G A145C C150U C169G U176C here?
The reverse-splicing fitness was 0.0134.

With C82A A111U A120G A145C C150U C169G U176A as the variant, how does the reverse-splicing fitness read?
Its reverse-splicing fitness is 0.0224.

Which reverse-splicing fitness does the source give for C82A A111U A120G A145C C150U C169G U176G here?
The reverse-splicing fitness was 0.00608.

Which reverse-splicing fitness does the source give for C82A A111U A120G A145G C150A C169U U176A here?
The reverse-splicing fitness was 0.0197.

Which reverse-splicing fitness does the source give for C82A A111U A120G A145G C150A C169U U176G here?
The reverse-splicing fitness was 0.0069.

Which reverse-splicing fitness does the source give for C82A A111U A120G A145G C150A C169U U176C here?
Its reverse-splicing fitness is 0.0167.

For C82A A111U A120G A145G C169A, which reverse-splicing fitness is on record?
The reverse-splicing fitness was 0.00997.

For C82A A111U A120G A145G C169U, which reverse-splicing fitness is on record?
Its reverse-splicing fitness is 0.00913.

With C82A A111U A120G A145G C169G as the variant, how does the reverse-splicing fitness read?
The reverse-splicing fitness was 0.0107.

Which reverse-splicing fitness does the source give for C82A A111U A120G A145C C150G C169A here?
The reverse-splicing fitness was 0.00846.

Which reverse-splicing fitness does the source give for C82A A111U A120G A145C C150G C169U here?
The reverse-splicing fitness was 0.00766.

With C82A A111U A120G A145C C150G C169G as the variant, how does the reverse-splicing fitness read?
The reverse-splicing fitness was 0.00674.

With C82A A111U A120G C150U C169U U176G as the variant, how does the reverse-splicing fitness read?
The reverse-splicing fitness was 0.00708.

With C82A A111U A120G C150U C169U U176A as the variant, how does the reverse-splicing fitness read?
The reverse-splicing fitness was 0.0197.

For C82A A111U A120G C150U C169U U176C, which reverse-splicing fitness is on record?
The reverse-splicing fitness was 0.0177.

Which reverse-splicing fitness does the source give for C82A A111U A120G A145U C150A C169G U176G here?
The reverse-splicing fitness was 0.00492.

For C82A A111U A120G A145U C150A C169G U176A, which reverse-splicing fitness is on record?
Its reverse-splicing fitness is 0.0146.

Which reverse-splicing fitness does the source give for C82A A111U A120G A145U C150A C169G U176C here?
Its reverse-splicing fitness is 0.0161.

With C82A A111U A120G A145C C169G U176G as the variant, how does the reverse-splicing fitness read?
The reverse-splicing fitness was 0.00418.

With C82A A111U A120G A145C C169G U176A as the variant, how does the reverse-splicing fitness read?
The reverse-splicing fitness was 0.0247.

With C82A A111U A120G A145C C169G U176C as the variant, how does the reverse-splicing fitness read?
The reverse-splicing fitness was 0.0184.

Which reverse-splicing fitness does the source give for C82A A111U A120G A145U C150U C169A U176A here?
The reverse-splicing fitness was 0.0139.

For C82A A111U A120G A145U C150U C169A U176G, which reverse-splicing fitness is on record?
Its reverse-splicing fitness is 0.0057.

For C82A A111U A120G A145U C150U C169A U176C, which reverse-splicing fitness is on record?
The reverse-splicing fitness was 0.0139.

For C82A A111U A120G A145G C150A C169G U176G, which reverse-splicing fitness is on record?
The reverse-splicing fitness was 0.00589.

For C82A A111U A120G A145G C150A C169G U176A, which reverse-splicing fitness is on record?
The reverse-splicing fitness was 0.0172.

For C82A A111U A120G A145G C150A C169G U176C, which reverse-splicing fitness is on record?
The reverse-splicing fitness was 0.0255.

With C82A A111U A120C C150G U176A as the variant, how does the reverse-splicing fitness read?
Its reverse-splicing fitness is 0.00671.

Which reverse-splicing fitness does the source give for C82A A111U A120C C150G U176G here?
The reverse-splicing fitness was 0.00421.

For C82A A111U A120C C150G U176C, which reverse-splicing fitness is on record?
Its reverse-splicing fitness is 0.0098.

For C82A A111U A120G C150A C169G U176G, which reverse-splicing fitness is on record?
Its reverse-splicing fitness is 0.0059.

Which reverse-splicing fitness does the source give for C82A A111U A120G C150A C169G U176C here?
The reverse-splicing fitness was 0.0227.

Which reverse-splicing fitness does the source give for C82A A111U A120G C150A C169G U176A here?
Its reverse-splicing fitness is 0.0215.

With C82A A111U A120G C150G C169A U176G as the variant, how does the reverse-splicing fitness read?
The reverse-splicing fitness was 0.00672.

Which reverse-splicing fitness does the source give for C82A A111U A120G C150G C169A U176A here?
The reverse-splicing fitness was 0.0106.

With C82A A111U A120G C150G C169A U176C as the variant, how does the reverse-splicing fitness read?
Its reverse-splicing fitness is 0.00965.

With C82A A111U A120G A145U C150U C169U as the variant, how does the reverse-splicing fitness read?
Its reverse-splicing fitness is 0.00891.

With C82A A111U A120G A145U C150U C169G as the variant, how does the reverse-splicing fitness read?
Its reverse-splicing fitness is 0.0104.

Which reverse-splicing fitness does the source give for C82A A111U A120G A145U C150U C169A here?
Its reverse-splicing fitness is 0.0101.

With C82A A111U A120C C150A C169G U176C as the variant, how does the reverse-splicing fitness read?
The reverse-splicing fitness was 0.0312.

With C82A A111U A120C C150A C169G U176G as the variant, how does the reverse-splicing fitness read?
Its reverse-splicing fitness is 0.00775.

For C82A A111U A120C C150A C169G U176A, which reverse-splicing fitness is on record?
The reverse-splicing fitness was 0.0199.

For C82A A111U A120G C150G C169G U176A, which reverse-splicing fitness is on record?
Its reverse-splicing fitness is 0.00798.

Which reverse-splicing fitness does the source give for C82A A111U A120G C150G C169G U176G here?
The reverse-splicing fitness was 0.00446.

Which reverse-splicing fitness does the source give for C82A A111U A120G C150G C169G U176C here?
Its reverse-splicing fitness is 0.0044.

With C82A A111U A120C C150A C169G as the variant, how does the reverse-splicing fitness read?
The reverse-splicing fitness was 0.0103.

Which reverse-splicing fitness does the source give for C82A A111U A120C C150A C169U here?
Its reverse-splicing fitness is 0.0129.

With C82A A111U A120C C150A C169A as the variant, how does the reverse-splicing fitness read?
The reverse-splicing fitness was 0.0122.

Which reverse-splicing fitness does the source give for C82A A111U A120G A145C C150A C169A U176A here?
Its reverse-splicing fitness is 0.0128.

For C82A A111U A120G A145C C150A C169A U176C, which reverse-splicing fitness is on record?
Its reverse-splicing fitness is 0.00664.

For C82A A111U A120G A145C C150A C169A U176G, which reverse-splicing fitness is on record?
The reverse-splicing fitness was 0.00551.

For C82A A111U A120G A145G C150G C169G U176A, which reverse-splicing fitness is on record?
Its reverse-splicing fitness is 0.0109.

For C82A A111U A120G A145G C150G C169G U176G, which reverse-splicing fitness is on record?
Its reverse-splicing fitness is 0.00619.

Which reverse-splicing fitness does the source give for C82A A111U A120G A145G C150G C169G U176C here?
Its reverse-splicing fitness is 0.0107.

Which reverse-splicing fitness does the source give for C82A A111U A120C C150U C169G U176C here?
Its reverse-splicing fitness is 0.0205.

With C82A A111U A120C C150U C169G U176A as the variant, how does the reverse-splicing fitness read?
The reverse-splicing fitness was 0.0159.

For C82A A111U A120C C150U C169G U176G, which reverse-splicing fitness is on record?
The reverse-splicing fitness was 0.00747.

For C82A A111U A120G A145U C150G C169G U176G, which reverse-splicing fitness is on record?
The reverse-splicing fitness was 0.00488.

For C82A A111U A120G A145U C150G C169G U176C, which reverse-splicing fitness is on record?
The reverse-splicing fitness was 0.00476.

Which reverse-splicing fitness does the source give for C82A A111U A120G A145U C150G C169G U176A here?
Its reverse-splicing fitness is 0.00656.

For C82A A111U A120G C150A C169G, which reverse-splicing fitness is on record?
Its reverse-splicing fitness is 0.0102.

With C82A A111U A120G C150A C169U as the variant, how does the reverse-splicing fitness read?
The reverse-splicing fitness was 0.00869.

For C82A A111U A120G C150A C169A, which reverse-splicing fitness is on record?
The reverse-splicing fitness was 0.0108.

Which reverse-splicing fitness does the source give for C82A A111U A120C C150G C169U U176C here?
Its reverse-splicing fitness is 0.011.

Which reverse-splicing fitness does the source give for C82A A111U A120C C150G C169U U176A here?
The reverse-splicing fitness was 0.00757.

Which reverse-splicing fitness does the source give for C82A A111U A120C C150G C169U U176G here?
The reverse-splicing fitness was 0.0062.

Which reverse-splicing fitness does the source give for C82A A111U A120G C169A here?
The reverse-splicing fitness was 0.0102.

Which reverse-splicing fitness does the source give for C82A A111U A120G A145G C169A U176G here?
The reverse-splicing fitness was 0.00503.

With C82A A111U A120G A145G C169A U176C as the variant, how does the reverse-splicing fitness read?
Its reverse-splicing fitness is 0.0259.

— the RNAGym collection of RNA variant scans (doi:10.1093/molbev/msab373)
